# Values of other authors, collected in PMC6800417.
# Target: EGFR (Homo sapiens) (UniProt P00533)
substance,measurement,value
111In-DTPA-hEGF (from UniProt P01133),Kd,1.3 nM
